Legend:
[1] = biological target: human α-CGRP F27A (25-37) (human); assay: Biacore SPR 25 C, Fab over peptide on SA chip; ratio to parent 25-37
[2] = biological target: human α-CGRP V28A (25-37) (human); assay: as above
[3] = biological target: human α-CGRP 1-37 (WT) (human); assay: Biacore, 25 C, Fab over biotin-CGRP on SA chip
[4] = biological target: human α-CGRP 1-37 (WT) (human); assay: Biacore, 37 C, Fab over biotin-CGRP on SA chip
rat α-CGRP (1-37) (rat) = assay: Biacore, 37 C, Fab over biotin-CGRP on SA chip
Sequence of rat α-CGRP (1-37) (rat) (peptide, as listed by the source): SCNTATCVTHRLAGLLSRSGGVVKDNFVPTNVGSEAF

[5] = biological target: human α-CGRP fragment 25-37 (human); assay: Biacore, 25 C, Fab over biotin-fragment on SA chip
[6] = biological target: human α-CGRP 1-37 (WT) (human); assay: Biacore SPR 25 C, Fab over N-biotinylated peptide on SA chip
[7] = biological target: human α-CGRP K35A (19-37) (human); assay: Biacore SPR 25 C, Fab over peptide on SA chip; ratio to parent 19-37
[8] = biological target: human α-CGRP G33A (25-37) (human); assay: Biacore SPR 25 C, Fab over peptide on SA chip; ratio to parent 25-37
[9] = biological target: human α-CGRP N31A (25-37) (human); assay: as above
[10] = biological target: human α-CGRP P29A (25-37) (human); assay: as above
[11] = biological target: human α-CGRP S34A (25-37) (human); assay: as above
[12] = biological target: human α-CGRP T30A (25-37) (human); assay: as above
[13] = biological target: human α-CGRP V32A (25-37) (human); assay: as above
[14] = biological target: human α-CGRP fragment 19-37 (human); assay: Biacore SPR 25 C, Fab over N-biotinylated peptide on SA chip; mean ± SD of two measurements on different chips
[15] = biological target: human α-CGRP fragment 25-37 (human); assay: as above

Sequence of human α-CGRP 1-37 (WT) (human) (peptide, as listed by the source): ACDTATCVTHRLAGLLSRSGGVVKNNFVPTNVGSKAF

Substance	KD (mutant/parent) [1]	KD (mutant/parent) [2]	Kd [3] [nM]	Kd [4] [nM]	Kd (rat α-CGRP (1-37) (rat)) [nM]	fold lower affinity than to full length human α-CGRP [5] [fold]	Kd [6] [nM]	KD (mutant/parent) [7]	KD (mutant/parent) [8]	KD (mutant/parent) [9]	KD (mutant/parent) [10]	KD (mutant/parent) [11]	KD (mutant/parent) [12]	KD (mutant/parent) [13]	Kd [14] [nM]	Kd [15] [nM]
murine anti-CGRP monoclonal antibody 7E9, Fab fragment	1	1														
anti-CGRP monoclonal antibody 4901, Fab fragment	0.8	0.8	61	139	3.4	6	60.5	0.3	1.3	0.3	0.2	0.8	0.2	0.9	52	296

— US20170037117A1, “COMPOSITIONS AND METHODS FOR TREATING METABOLIC DISORDERS” (Salk Institute for Biological Studies, priority 2014, published 2017)
